Experiment in all cases: MIC assay (broth microdilution, RPMI + 5% LB)
Type in all cases: cell-based
A general note: In broth dilution the organism is exposed to a series of concentrations in liquid medium.

The test system of assay [1] is Pseudomonas aeruginosa PAO1. As to conditions: assay media RPMI A. As for the experimental part:
(§1) Bacterial strains were stored as glycerol stocks at −80° C. prior to culturing on cation-adjusted Mueller-Hinton agar (MHA; BD cat. no. 211438) at 37° C. Antibacterial activity was assessed against a panel consisting of Escherichia coli, Acinetobacter baumannii, Pseudomonas aeruginosa, and Klebsiella pneumoniae strains (see Table 2).
(§2) Briefly, stock solutions of all antibacterial agents were prepared fresh in appropriate solvents (i.e. PBS, pH 7.4. DMSO, DI, etc.). Stock concentrations were made at 50× the highest final assay concentration and serially diluted 2-fold, 8 or 12 times in a 96-well PCR plate (VWR cat. no. 83007-374). Bacterial cell suspensions generated from MHA plate cultures were prepared in 0.85% saline and adjusted to ˜0.1 OD600 nm. Next, cell suspensions were diluted 1:200 in RPMI containing 5% Luria Broth (LB) to improve bacterial growth (BD Difco, cat. no. 244620) to a concentration of ˜5×10^5 CFU (colony-forming units)/mL. […] Later, conjugates 16 and 17, and 20-25 were evaluated in RPMI 1640 medium (+) L-glutamine, (+) sodium bicarbonate, pH 7.4 (“RPMI B”; Gibco, cat. no. 11875-085) as has been described as a more physiologically-relevant media for susceptibility testing of antibacterial compounds. Dorschner R A et al., The mammalian ionic environment dictates microbial susceptibility to antimicrobial defense peptides. FASEB J. 20(1):35-42 […]. Ninety-eight microliters of each cell suspension in MHB were added to test wells in a 96-well assay plate (Costar cat. no. 3370). A Beckman Multimek 96 liquid handling robot was used to dispense 2 μL of each 50× stock compound into the plate containing 98 μL of each strain in MHB (2% final solvent concentration). E. coli strains BW25113 and ATCC 25922 were run in the presence and absence of 50% heat-inactivated fetal bovine serum (FBS; Sigma, cat. no. F4135-100 mL). Plates were mixed by shaking then incubated at 37° C. overnight (16-20 h).

Assay [2] has as its system Escherichia coli BW25113 4X-12 (COL-R; PmrB-Leu10Pro). The settings on record: assay media RPMI A. As for the experimental part: as §1, §2
The subject of assay [3] is Escherichia coli BW25113. The settings on record: assay media RPMI A; for MIC Ec BW + FBS: 50% heat-inactivated FBS.
Assay [4] has as its system Escherichia coli ATCC BAA-2469. The settings on record: assay media RPMI A. The protocol:
as §1
(§3) Briefly, stock solutions of all antibacterial agents were prepared fresh in appropriate solvents (i.e. PBS, pH 7.4. DMSO, DI, etc.). Stock concentrations were made at 50× the highest final assay concentration and serially diluted 2-fold, 8 or 12 times in a 96-well PCR plate (VWR cat. no. 83007-374). Bacterial cell suspensions generated from MHA plate cultures were prepared in 0.85% saline and adjusted to ˜0.1 OD600 nm. […] Dorschner R A et al., The mammalian ionic environment dictates microbial susceptibility to antimicrobial defense peptides. FASEB J. 20(1):35-42 (2017). Ninety-eight microliters of each cell suspension in MHB were added to test wells in a 96-well assay plate (Costar cat. no. 3370). A Beckman Multimek 96 liquid handling robot was used to dispense 2 μL of each 50× stock compound into the plate containing 98 μL of each strain in MHB (2% final solvent concentration). E. coli strains BW25113 and ATCC 25922 were run in the presence and absence of 50% heat-inactivated fetal bovine serum (FBS; Sigma, cat. no. F4135-100 mL). Plates were mixed by shaking then incubated at 37° C. overnight (16-20 h).

The subject of assay [5] is Acinetobacter baumannii AB5075. As to conditions: assay media RPMI A. As for the experimental part:
as §1, §3

For assay [6], the system named is Acinetobacter baumannii ATCC 19606. As to conditions: assay media RPMI A. As for the experimental part: as §1, §3
The subject of assay [7] is Escherichia coli BW25113 + pUC18-mcr-1. As to conditions: assay media RPMI A.
Text: An mcr-1 expression plasmid was constructed (GenScript; Piscataway, N.J.) using the pUC18 high copy number plasmid (Yanisch-Perron, et al., 1985). A 1649-bp fragment was synthesized containing, in order from 5′ to 3′: EcoR1 restriction site (5′-GAATTC-3), a ribosomal binding site (5′-AGGAGG-3′), a 5-bp native start codon upstream sequence (5′-TTCTC-3′) from the mcr-1-bearing plasmid pHNSHP45 (Liu, Y Y, et al., 2015; GenBank Accession #KP347127), the 1626-bp mcr-1 open reading frame with stop codon (“orf00073” of GenBank Accession #KP347127), and finally an Xba1 restriction site sequence (5′-TCTAGA-3′). […] The pUC18-mcr-1 plasmid was transformed into chemically-competent E. coli BW25113 (Coli Genetic Stock Center #7636) as described previously (Chung, et al., PNAS. 1989), recovered for 1 h shaking at 37° C. in Super Optimal broth with Catabolite repression (SOC) media and then aliquots were plated on Luria-Bertani (LB) media containing 100 μg/mL of carbenicillin. Putative transformant colonies were then verified in MIC assays.
as §1
Briefly, stock solutions of all antibacterial agents were prepared fresh in appropriate solvents (i.e. PBS, pH 7.4. DMSO, DI, etc.). Stock concentrations were made at 50× the highest final assay concentration and serially diluted 2-fold, 8 or 12 times in a 96-well PCR plate (VWR cat. no. 83007-374). Bacterial cell suspensions generated from MHA plate cultures were prepared in 0.85% saline and adjusted to ˜0.1 OD600 nm. […] Later, conjugates 16 and 17, and 20-25 were evaluated in RPMI 1640 medium (+) L-glutamine, (+) sodium bicarbonate, pH 7.4 (“RPMI B”; Gibco, cat. no. 11875-085) as has been described as a more physiologically-relevant media for susceptibility testing of antibacterial compounds. […]

The test system of assay [8] is Escherichia coli ATCC 25922. As to conditions: assay media RPMI A; for MIC Ec 25922 + FBS: 50% heat-inactivated FBS.
For assay [9], the system named is Pseudomonas aeruginosa ATCC 27853. The settings on record: assay media RPMI A. As for the experimental part:
as §1, §2

The subject of assay [10] is Acinetobacter baumannii ATCC 17978. The settings on record: assay media RPMI A. The protocol:
as §1, §2

B1: Conjugate 4 (conjugate)
chain: PRGPTIKPCPPCKCPAPNLLGGPSVFIFPPKIKDVLMISLSPIVTCVVVDVSEDDPDVQISWFVNNVEVHTAQTQTHREDYNSTLRVVSALPIQHQDWMSGKEFKCKVNNKDLPAPIERTISKPKGSVRAPQVYVLPPPEEEMTKKQVTLTCMVTDFMPEDIYVEWTNNGKTELNYKNTEPVLDSDGSYFMYSKLRVEKKNWVERNSYSCSVVHEGLHNHHTTKSFSRTPGKHHHHHH
modifications: cyclised or stapled
As to B1, the “MIC Pa PAO1” value in assay [1] came to 16 µg/mL. Also, the “MIC Ec BW 4X-12 (COL-R)” value in assay [2] is more than 128 µg/mL. In assay [3], the “MIC Ec BW” value was determined as 32 µg/mL and the “MIC Ec BW + FBS” value came to 32 µg/mL. For the same molecule, in [4], the “MIC Ec 2469” value is more than 128 µg/mL. The “MIC Ab AB5075” value in assay [5] stood at 32 µg/mL. Besides, in assay [6], the “MIC Ab 19606” value came out at 32 µg/mL. In addition, the “MIC Ec BW (mcr-1)” value in assay [7] is more than 128 µg/mL. In assay [8], the “MIC Ec 25922” value is more than 128 µg/mL and the “MIC Ec 25922 + FBS” value was 64 µg/mL.

B2: Conjugate 15 (conjugate)
chain: PRGPTIKPCPPCKCPAPNLLGGPSVFIFPPKIKDVLMISLSPIVTCVVVDVSEDDPDVQISWFVNNVEVHTAQTQTHREDYNSTLRVVSALPIQHQDWMSGKEFKCKVNNKDLPAPIERTISKPKGSVRAPQVYVLPPPEEEMTKKQVTLTCMVTDFMPEDIYVEWTNNGKTELNYKNTEPVLDSDGSYFMYSKLRVEKKNWVERNSYSCSVVHEGLHNHHTTKSFSRTPGKHHHHHH
modifications: cyclised or stapled
Regarding B2, the “MIC Pa PAO1” value in assay [1] amounted to 16 µg/mL. The “MIC Ec BW 4X-12 (COL-R)” value in assay [2] is more than 128 µg/mL. In addition, in [3], the “MIC Ec BW” value is more than 128 µg/mL and the “MIC Ec BW + FBS” value is more than 128 µg/mL. The “MIC Ec 2469” value in assay [4] is more than 128 µg/mL. Also, the “MIC Ab AB5075” value in [5] is more than 128 µg/mL. The “MIC Ab 19606” value in assay [6] was more than 128 µg/mL. Moreover, the “MIC Ec BW (mcr-1)” value in assay [7] was more than 128 µg/mL. For the same molecule, in assay [8], the “MIC Ec 25922” value was more than 128 µg/mL and the “MIC Ec 25922 + FBS” value was more than 128 µg/mL.

B3: Conjugate 26: "Conjugate of m-IgG2a(His)6 Fc-3 (Int-13)"; SEQ ID NO: 6, procedure uses Int-10, DAR=2/Fc dimer (conjugate)
chain: PRGPTIKPCPPCKCPAPNLLGGPSVFIFPPKIKDVLMISLSPIVTCVVVDVSEDDPDVQISWFVNNVEVHTAQTQTHREDYNSTLRVVSALPIQHQDWMSGKEFKCKVNNKDLPAPIERTISKPKGSVRAPQVYVLPPPEEEMTKKQVTLTCMVTDFMPEDIYVEWTNNGKTELNYKNTEPVLDSDGSYFMYSKLRVEKKNWVERNSYSCSVVHEGLHNHHTTKSFSRTPGKHHHHHH
modifications: conjugated small molecule Int-13, DAR 2
On to B3, for which the “MIC Pa 27853” value in assay [9] stood at 16 µg/mL. Besides, the “MIC Ab 17978” value in [10] amounted to 64 µg/mL. In addition, the “MIC Pa PAO1” value in assay [1] came to 64 µg/mL. In addition, the “MIC Ec BW 4X-12 (COL-R)” value in [2] was more than 128 µg/mL. Further, in [3], the “MIC Ec BW” value turned out to be 16 µg/mL and the “MIC Ec BW + FBS” value was 32 µg/mL. Moreover, in assay [4], the “MIC Ec 2469” value was determined as 32 µg/mL. Also, in [5], the “MIC Ab AB5075” value is 32 µg/mL. For the same molecule, in assay [6], the “MIC Ab 19606” value was determined as 128 µg/mL. For the same molecule, the “MIC Ec BW (mcr-1)” value in [7] is more than 128 µg/mL. In addition, in [8], the “MIC Ec 25922” value was more than 128 µg/mL and the “MIC Ec 25922 + FBS” value worked out at 128 µg/mL.
